Reference: patent US20260234211A1 (GUANGDONG RAYNOVENT BIOTECH, published 2026)
Bridge positions count the residues as written; N and C are the ends. Square brackets hold non-standard residues; d marks the D form. Ends that are not written are not given here. Aib = CC(C)(N)C(=O)O

T1: GIP receptor (GIPR)
T1 sequence (P48546 whole entry, species assumed, looked up): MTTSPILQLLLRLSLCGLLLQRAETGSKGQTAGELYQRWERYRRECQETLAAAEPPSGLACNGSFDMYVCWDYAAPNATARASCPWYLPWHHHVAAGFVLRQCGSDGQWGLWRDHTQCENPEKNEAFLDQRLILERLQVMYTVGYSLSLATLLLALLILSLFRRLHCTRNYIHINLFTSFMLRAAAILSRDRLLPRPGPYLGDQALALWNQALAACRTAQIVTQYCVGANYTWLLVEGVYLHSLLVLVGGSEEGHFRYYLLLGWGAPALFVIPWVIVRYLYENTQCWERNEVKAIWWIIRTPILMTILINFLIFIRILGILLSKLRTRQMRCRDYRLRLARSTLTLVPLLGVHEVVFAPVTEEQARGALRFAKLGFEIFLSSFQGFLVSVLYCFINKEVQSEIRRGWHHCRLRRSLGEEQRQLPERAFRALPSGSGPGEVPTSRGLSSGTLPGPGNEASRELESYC

B1: Example 5 (peptide)
peptide: H[Aib]HGTFTSDYSIYLEKKYA[Aib]KFVQWLLEGGPSSGAPPPS-NH2
modifications: bridge 17-21; not fully specified (residues 17, 21, bridges); also: staple structure only in drawing
B2: Example 4 (peptide)
peptide: H[Aib]HGTFTSDYSIYLEKKYA[Aib]EFVKWLLKGGPSSGAPPPS-NH2
modifications: bridge 24-28; not fully specified (residues 24, 28, bridges); also: staple structure only in drawing

Columns and labels:
Test in all cases: cell-based or functional assay
GCG receptor (GCGR) = target: GCG receptor (GCGR)
GLP-1 receptor (GLP-1R) = target: GLP-1 receptor (GLP-1R)
GIP receptor (GIPR) = target: T1, GIP receptor (GIPR)

Binder	GCG EC50 (nM), cAMP assay on HEK293 cells with GCGR (GCG receptor (GCGR)) [nM]	GLP-1 EC50 (nM), cAMP assay on HEK293 cells with GLP-1R (GLP-1 receptor (GLP-1R)) [nM]	GIP-1 EC50 (nM), cAMP assay on CHO cells with GIPR (GIP receptor (GIPR)) [nM]
B1	0.012	0.029	0.007
B2	0.143	0.023	0.016
